Fold reduction of cross-binding relative to KP-insulin or wild-type insulin data for one substance are collected here from patent publication US20110166064A1.

For this experiment, the target named is Insulin-like Growth Factor I Receptor (IGF-1R) (UniProt P08069). The experiment is described as follows: competitive displacement of 125I-IGF-I from IGF-1R, FIG. 9B.
Insulin-like Growth Factor I Receptor (IGF-1R), sequence (P08069 31-1367 limits assumed): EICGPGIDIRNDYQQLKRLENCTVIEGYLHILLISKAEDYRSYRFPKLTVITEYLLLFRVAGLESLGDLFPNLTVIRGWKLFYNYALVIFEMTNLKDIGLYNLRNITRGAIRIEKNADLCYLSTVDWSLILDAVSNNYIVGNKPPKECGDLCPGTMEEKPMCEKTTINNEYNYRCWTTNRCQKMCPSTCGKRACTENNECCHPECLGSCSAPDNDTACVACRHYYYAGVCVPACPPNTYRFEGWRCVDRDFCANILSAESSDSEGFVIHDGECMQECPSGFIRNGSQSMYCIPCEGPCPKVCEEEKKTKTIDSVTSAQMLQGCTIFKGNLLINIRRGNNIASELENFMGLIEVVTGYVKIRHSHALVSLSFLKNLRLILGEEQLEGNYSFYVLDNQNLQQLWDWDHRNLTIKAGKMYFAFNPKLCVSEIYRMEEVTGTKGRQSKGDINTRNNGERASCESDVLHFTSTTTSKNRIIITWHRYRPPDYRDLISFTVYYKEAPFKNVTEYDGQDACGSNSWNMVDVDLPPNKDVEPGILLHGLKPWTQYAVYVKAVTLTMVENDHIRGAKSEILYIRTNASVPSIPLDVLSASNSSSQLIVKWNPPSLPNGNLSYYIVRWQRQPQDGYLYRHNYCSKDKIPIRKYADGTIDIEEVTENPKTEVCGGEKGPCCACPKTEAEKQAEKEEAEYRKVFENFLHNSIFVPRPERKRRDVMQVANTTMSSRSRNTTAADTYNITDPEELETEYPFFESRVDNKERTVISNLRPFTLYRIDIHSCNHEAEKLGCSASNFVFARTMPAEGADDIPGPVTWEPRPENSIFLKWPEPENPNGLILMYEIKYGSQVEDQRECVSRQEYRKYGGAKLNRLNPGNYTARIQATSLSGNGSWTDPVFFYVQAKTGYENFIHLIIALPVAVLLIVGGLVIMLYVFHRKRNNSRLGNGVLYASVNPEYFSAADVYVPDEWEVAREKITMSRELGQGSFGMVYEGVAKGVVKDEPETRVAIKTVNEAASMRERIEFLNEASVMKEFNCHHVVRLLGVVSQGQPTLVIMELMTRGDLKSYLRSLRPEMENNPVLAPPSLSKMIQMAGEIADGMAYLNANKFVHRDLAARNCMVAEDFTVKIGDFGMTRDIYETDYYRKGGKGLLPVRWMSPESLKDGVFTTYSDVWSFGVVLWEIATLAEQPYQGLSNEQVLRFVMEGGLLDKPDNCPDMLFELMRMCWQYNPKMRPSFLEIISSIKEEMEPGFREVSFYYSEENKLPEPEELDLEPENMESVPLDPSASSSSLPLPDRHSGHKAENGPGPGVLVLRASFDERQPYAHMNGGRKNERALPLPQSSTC

Consider “4Cl-Phe^B24-KP-insulin (ligand; para-monochloro-phenylalanine (4Cl-Phe) at B24; other documents disagree on this pair)”, for which the fold reduction of cross-binding relative to KP-insulin or wild-type insulin is 3 fold.
